The data set has as its target T1, His-OsNAC2 (Oryza sativa, UniProt Q7XUV6 1-343).
T1 sequence: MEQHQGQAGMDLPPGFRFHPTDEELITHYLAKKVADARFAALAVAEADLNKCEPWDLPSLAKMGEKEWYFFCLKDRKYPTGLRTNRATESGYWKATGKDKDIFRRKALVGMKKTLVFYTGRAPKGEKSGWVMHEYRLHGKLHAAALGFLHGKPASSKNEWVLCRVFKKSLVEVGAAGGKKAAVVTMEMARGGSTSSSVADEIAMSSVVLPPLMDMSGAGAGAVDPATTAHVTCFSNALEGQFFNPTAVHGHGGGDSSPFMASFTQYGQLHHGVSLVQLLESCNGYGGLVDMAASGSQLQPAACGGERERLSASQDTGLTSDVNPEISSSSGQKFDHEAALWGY
The data set can be described thus: EMSA. For orientation: Mobility shift assays separate free from complexed probe on a gel.

B1: probe-OsNAC2-59 (MITE in OsSCE1a promoter) (dsDNA)
DNA 1: TCCTTTGAGTCTATCTCTCTCATCCAATTCTTGTGTTTTTCCTGTGGTTCAATCAAACG
DNA 2: CGTTTGATTGAACCACAGGAAAAACACAAGAATTGGATGAGAGAGATAGACTCAAAGGA
Take B1: the binding result is reported as “binds”.

The record behind these values is paper PMC11772321.
